Results as given in article PMC10938909.

Columns and labels:
native quail IgY (qIgY) = experiment: bio-layer interferometry (BLItz, advanced kinetics mode); conditions: pH 5.5; PBS (composition not stated); PBS with 20 mM MES at pH 5.5 or 20 mM HEPES at pH 7.4
[1] = biological target: recombinant quail IgY-Fc G365A G365A; experiment: as above; conditions: pH 5.5; PBS (composition not stated); PBS with 20 mM MES at pH 5.5 or 20 mM HEPES at pH 7.4
[2] = biological target: recombinant quail IgY-Fc Y363A Y363A; experiment: as above; conditions: pH 5.5; PBS (composition not stated); PBS with 20 mM MES at pH 5.5 or 20 mM HEPES at pH 7.4
[3] = biological target: recombinant quail IgY-Fc wild type (WT); experiment: as above; conditions: pH 5.5; PBS (composition not stated); PBS with 20 mM MES at pH 5.5 or 20 mM HEPES at pH 7.4
[4] = biological target: secretory chicken FcRY (lacking the membrane-spanning domain, residues 36-1396); experiment: competitive binding assay against DIG-IgY on FcRY-immobilized plate, ELISA; conditions: pH 6.0, DIG-IgY tracer (m10) 27.8 nM, value is DIG-IgY still bound (lower = stronger competition), no-competitor level est. 0.17 nM, n = 3, read off a plot
[5] = biological target: secretory chicken FcRY (lacking the membrane-spanning domain, residues 36-1396) (chicken); experiment: ELISA; graded pH (pH 4.0-7.4), IgY-Fc mutants at 55.6 nM on FcRY held on copper-coated plates; the acidic points (strongest at pH 5.5, pH 5.0-6.0)
[6] = biological target: secretory chicken FcRY (lacking the membrane-spanning domain, residues 36-1396) (chicken); experiment: BLI; BLItz, advanced kinetics; chicken FcRY (400 nM) immobilised on Ni-NTA sensor via His tag; Igs 50-600 nM; pH 5.5 (PBS, 0.05% Tween 20, 20 mM MES, 0.5% BSA); association 120 s, dissociation 120 s; 1:1 fit
[7] = biological target: secretory chicken FcRY (lacking the membrane-spanning domain, residues 36-1396) (chicken)
[8] = biological target: secretory chicken FcRY (lacking the membrane-spanning domain, residues 36-1396) (chicken); remark: listed apart in the source
[9] = competitor 55.6 nM, parent: est. 0.080
[10] = competitor 111.1 nM, parent: est. 0.060
[11] = competitor 277.8 nM, parent: est. 0.042

Row | Substance | response [4, 9] [nM] | response [4, 10] [nM] | response [4, 11] [nM] | Kd [6] [nM] | koff [6] [s⁻¹] | kon [6] [M⁻¹ s⁻¹] | also measured
1 | secretory FcRY (IgY-Fc receptor, PLA2R homologue) ectodomain |  |  |  |  |  |  | ka (native quail IgY (qIgY)): 35000 M⁻¹ s⁻¹; kd (native quail IgY (qIgY)): 0.0095 s⁻¹; ka [1]: 42000 M⁻¹ s⁻¹; kd [1]: 0.0082 s⁻¹; ka [2]: 23000 M⁻¹ s⁻¹; kd [2]: 0.0015 s⁻¹; ka [3]: 19000 M⁻¹ s⁻¹; kd [3]: 0.0065 s⁻¹
2 | recombinant quail wild-type IgY-Fc G365D | 0.15 | 0.13 | 0.14 |  |  |  | 
3 | recombinant quail wild-type IgY-Fc N408A | 0.11 | 0.1 | 0.086 |  |  |  | 
4 | quail IgY-Fc mutant Y363A (domain or fragment) |  |  |  | 65 | 0.0015 | 23000 | amount bound at pH 5.0-6.0 relative to WT and G365A [5]: 2 fold
5 | native quail IgY (ligand) |  |  |  | 275 | 0.0095 | 35000 | 
6 | recombinant quail wild-type IgY-Fc (domain or fragment) |  |  |  | 333 | 0.0065 | 19000 | uptake of DIG-labeled WT tracer into egg yolks of laying quail co-injected with the FcRY-neutralizing rabbit antibody Strong Ab (1 mg/100 g BW), relative to control rabbit IgG [7]: 20%; uptake of DIG-labeled WT tracer into egg yolks of laying quail co-injected with the FcRY-neutralizing rabbit antibody Weak Ab (1 mg/100 g BW), relative to control [7]: 60%
7 | quail IgY-Fc mutant G365A (domain or fragment) |  |  |  | 197 | 0.0082 | 42000 | uptake of the intravenously injected DIG-labeled IgY-Fc mutant (20 ug/100 g BW) into quail egg yolks, eggs of 6 d, relative to WT [8]: 2 fold
8 | recombinant quail wild-type IgY-Fc G365S | 0.086 | 0.066 | 0.05 |  |  |  | 
